Measured values reported in publication PMC6379675, “Structural insights into chromosome attachment to the nuclear envelope by an inner nuclear membrane protein Bqt4 in fission yeast” (Nucleic Acids Research, 2018).
Like-named read-outs stand apart in the source and are kept apart here.

T1: Bqt4_(2–140), N-terminal domain of Bqt4 (S. pombe, UniProt O60158 2-140)
T1 chain: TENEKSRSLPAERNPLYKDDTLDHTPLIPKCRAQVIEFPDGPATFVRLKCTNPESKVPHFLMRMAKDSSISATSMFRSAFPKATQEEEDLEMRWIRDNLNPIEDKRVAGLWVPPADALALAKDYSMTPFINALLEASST

T2: Bqt4NTD D90R (S. pombe, UniProt O60158 2-140, D90 into arginine)
T2 sequence: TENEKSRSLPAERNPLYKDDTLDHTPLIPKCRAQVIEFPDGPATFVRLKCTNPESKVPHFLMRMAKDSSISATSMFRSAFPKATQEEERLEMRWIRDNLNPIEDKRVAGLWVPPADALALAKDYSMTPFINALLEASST

T3: Bqt4NTD R33A (S. pombe, UniProt O60158 2-140, R33A)
T3 sequence: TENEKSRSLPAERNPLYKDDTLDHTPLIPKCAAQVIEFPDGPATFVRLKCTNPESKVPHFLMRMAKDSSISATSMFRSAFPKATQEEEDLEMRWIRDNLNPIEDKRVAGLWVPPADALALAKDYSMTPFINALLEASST

T4: Bqt4NTD^F61A (S. pombe, UniProt O60158 2-140, F61A)
T4 sequence: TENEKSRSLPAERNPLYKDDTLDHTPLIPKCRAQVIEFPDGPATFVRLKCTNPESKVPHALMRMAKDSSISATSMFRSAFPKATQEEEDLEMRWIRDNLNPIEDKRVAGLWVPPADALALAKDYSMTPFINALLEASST

T5: Bqt4_(2–140), N-terminal domain of Bqt4 (S. pombe, UniProt O60158 2-140)
T5 construct: Bqt4, S. pombe inner nuclear membrane protein, residues 2-140; also called Bqt4NTD; Bqt4NTD^WT; source: E. coli BL21(DE3), purified (Ni-NTA, on-beads Ulp1 digestion, Superdex200); not shown: His6, N-terminal, cleaved; SUMO, N-terminal, cleaved
T5 sequence (looked up): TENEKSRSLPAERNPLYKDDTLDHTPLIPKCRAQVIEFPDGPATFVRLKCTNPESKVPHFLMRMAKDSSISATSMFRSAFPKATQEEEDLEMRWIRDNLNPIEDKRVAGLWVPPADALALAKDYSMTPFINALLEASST

T6: Bqt4_(2–180) (S. pombe, UniProt O60158 2-180)
T6 chain: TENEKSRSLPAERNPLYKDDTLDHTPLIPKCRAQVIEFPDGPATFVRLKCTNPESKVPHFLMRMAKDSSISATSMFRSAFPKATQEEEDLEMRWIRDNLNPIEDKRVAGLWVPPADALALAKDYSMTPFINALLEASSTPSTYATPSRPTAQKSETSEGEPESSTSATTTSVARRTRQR

T7: Bqt4NTD^R48E (S. pombe, UniProt O60158 2-140, R48E)
T7 sequence: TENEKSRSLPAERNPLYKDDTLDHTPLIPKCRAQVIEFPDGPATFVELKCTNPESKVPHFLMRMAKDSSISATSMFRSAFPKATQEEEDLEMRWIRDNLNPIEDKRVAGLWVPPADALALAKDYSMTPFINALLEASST

T8: Bqt4_(2–180) (S. pombe, UniProt O60158 2-180)
T8 construct: Bqt4, S. pombe, residues 2-180; also called N-terminal region of Bqt4; source: E. coli BL21(DE3), purified (Ni-NTA, on-beads Ulp1 digestion, Superdex200); not shown: His6, N-terminal, cleaved; SUMO, N-terminal, cleaved
T8 sequence (looked up): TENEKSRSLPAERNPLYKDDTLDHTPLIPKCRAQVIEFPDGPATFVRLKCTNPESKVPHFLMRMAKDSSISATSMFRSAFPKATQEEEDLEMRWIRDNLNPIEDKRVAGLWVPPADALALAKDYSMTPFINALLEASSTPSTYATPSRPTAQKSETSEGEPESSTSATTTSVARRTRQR


Assays:
[1] = molecular target: T1, Bqt4_(2–140), N-terminal domain of Bqt4; test: ITC
[2] = molecular target: T2, Bqt4NTD D90R; test: ITC
[3] = molecular target: T3, Bqt4NTD R33A; test: ITC
[4] = molecular target: T1, Bqt4_(2–140), N-terminal domain of Bqt4; test: ITC
[5] = molecular target: T4, Bqt4NTD^F61A; test: ITC
[6] = molecular target: T5, Bqt4_(2–140), N-terminal domain of Bqt4; test: ITC; ITC200; peptide (Rap1 479-527 at 1000–1500 μM) titrated into Bqt4 2-140 (100–150 μM), 20°C, 20 mM Tris–HCl pH 8.0, 150 mM NaCl; one binding site model; two independent experiments; conditions: both partners purified
[7] = molecular target: T5, Bqt4_(2–140), N-terminal domain of Bqt4; test: fluorescence polarisation; competition: FITC-labeled Lem2BBM pre-mixed with Bqt4NTD (4°C, 1 h), unlabeled peptides from 10 nM to 200 μM added; 25 mM Tris–HCl pH 8.0, 150 mM NaCl, 10% glycerol; 25°C; conditions: both partners purified
[8] = molecular target: T1, Bqt4_(2–140), N-terminal domain of Bqt4; test: ITC
[9] = molecular target: T1, Bqt4_(2–140), N-terminal domain of Bqt4; test: FP; competition with FITC-Lem2BBM
[10] = molecular target: T1, Bqt4_(2–140), N-terminal domain of Bqt4; test: ITC
[11] = molecular target: T6, Bqt4_(2–180); test: ITC
[12] = molecular target: T7, Bqt4NTD^R48E; test: ITC
[13] = molecular target: T4, Bqt4NTD^F61A; test: ITC; remark: listed apart in the source
[14] = molecular target: T8, Bqt4_(2–180); test: ITC; ITC200; peptide (Rap1 479-527 at 1000–1500 μM) titrated into Bqt4 2-140 (100–150 μM), 20°C, 20 mM Tris–HCl pH 8.0, 150 mM NaCl; one binding site model; two independent experiments; conditions: both partners purified

Binder	Kd [8] [µM]	Kd [10] [µM]	Kd [11] [µM]	further results
SESSSPYSEVDSAEEDDELFQNYVLQQTRK [Lem2_(250-279)]	–	–	–	Kd [1]: 0.34 µM
EIPLLSDYSDSENISEKSSDDEEAFEKQVTSSYSSPIKVKSQGKSSKGS (domain or fragment, S. pombe, UniProt Q96TL7 479-527, looked up, also called Rap1^WT; wild-type Rap1; source: E. coli BL21(DE3), purified (glutathione-Sepharose 4B, on-beads 3C digestion, Superdex75); not shown: GST, N-terminal, cleaved) [Rap1_(479–527)]	–	–	–	Kd [2]: 14.4 µM; Kd [3]: 12.3 µM; Kd [4]: 11.4 µM; Kd [5]: 909 µM; fold by which the Bqt4-Lem2 interaction is stronger than this pair [6]: 20 fold; IC50 [7]: 50.9 µM
EIPLLSDYSDSENISEKSSDDEEAFEKQVTSSYSAPIKVKSQGKSSKGS [Rap1_(479-527) S513A]	7.9	–	–	–
EIPLLSDYSDSENISEKSSDDEEAAEKQVTSSYSSPIKVKSQGKSSKGS (domain or fragment) [Rap1_(479–527) F503A]	–	–	–	Kd [4]: 106 µM
EIPLLSDYSDSENISEKSSDDEEAFEKQVTSSYASPIKVKSQGKSSKGS [Rap1_(479-527) S512A]	7.1	–	–	–
EIPLLSDYSDSENISEKSSDAAEAFEKQVTSSYSSPIKVKSQGKSSKGS (domain or fragment) [Rap1_(479–527) D499A/E500A]	–	–	–	Kd [4]: 862 µM
EIPLLSDYSDSENISEKSSDDEEAFEKQATSSYSSPIKVKSQGKSSKGS (domain or fragment) [Rap1_(479–527) V507A]	–	–	–	Kd [4]: 138 µM
EIPLLSDYSDSENISEKSSDDEEAFEKQVTSSYESPIKVKSQGKSSKGS (domain or fragment) [Rap1_(479–527) S512E]	27.2	–	–	–
EIPLLSDYSDSENISEKASDDEEAFEKQVTSSYSSPIKVKSQGKSSKGS [Rap1_(479-527) S496A]	10.6	–	–	–
EIPLLSDYSDSENISEKESDDEEAFEKQVTSSYSSPIKVKSQGKSSKGS (domain or fragment, S. pombe, UniProt Q96TL7 479-527, looked up, phosphomimetic; also called Rap1^S496E; source: E. coli BL21(DE3), purified (glutathione-Sepharose 4B, on-beads 3C digestion, Superdex75); not shown: GST, N-terminal, cleaved) [Rap1_(479–527) S496E]	2.4	–	–	binding result [6]: binds
Rap1_(403-541) (protein) DSMYRSISNPLHLVDSQHLSPLNRKTHFNNPIGQPQFTCLDDHEKTLRETSFRSLDDMSLRKSNSDNIFVKPGEDLEIPLLSDYSDSENISEKSSDDEEAFEKQVTSSYSSPIKVKSQGKSSKGSSGLDVREHEGSDDD	–	4.8	5.4	–
SDNEEFENVVKNGH (peptide, UniProt Q09825 88-101, looked up, Sad1, S. pombe spindle pole body-associated protein, residues 88-101 (14 residues); 3C cleavage leaves extra N-terminal residues; also called Sad1BBM; Sad1_(88–101); source: E. coli BL21(DE3), purified (glutathione-Sepharose 4B, on-beads 3C digestion, Superdex75); not shown: GST, N-terminal, cleaved) [Sad1 (residues 88–101)]	–	–	–	Kd [12]: 262 µM; Kd [6]: 3.7 µM
SAEEDDELFQNYVLQQTRK (peptide, UniProt Q10109 261-279, looked up, 3C cleavage leaves extra N-terminal residues; also called Lem2BBM; source: E. coli BL21(DE3), purified (glutathione-Sepharose 4B, on-beads 3C digestion, Superdex75); not shown: GST, N-terminal, cleaved) [Lem2_(261–279)]	–	–	–	Kd [13]: 46 µM; Kd [12]: 3.2 µM; Kd [6]: ~0.53 µM; IC50 [7]: 1.2 µM
ENISEKSSDDEEAFEKQVTSSYSS (peptide, UniProt Q96TL7 490-513, looked up, 3C cleavage leaves extra N-terminal residues; also called Rap1BBM; source: E. coli BL21(DE3), purified (glutathione-Sepharose 4B, on-beads 3C digestion, Superdex75); not shown: GST, N-terminal, cleaved) [Rap1_(490–513), Bqt4-binding motif of Rap1]	–	11.4	11	binding result [14]: binds; binding result [6]: binds
Rap1_(468-519) (protein) DNIFVKPGEDLEIPLLSDYSDSENISEKSSDDEEAFEKQVTSSYSSPIKVKS	–	6.6	10.8	–
Rap1_(468-527) (protein) DNIFVKPGEDLEIPLLSDYSDSENISEKSSDDEEAFEKQVTSSYSSPIKVKSQGKSSKGS	–	5.8	8.7	–

The next lines start with results.

Kd [8] [µM]	Kd [10] [µM]	Kd [11] [µM]	Binder	further results
8	–	–	EIPLLSDYSDSENISEKAADDEEAFEKQVTSSYSSPIKVKSQGKSSKGS [Rap1_(479-527) S496A/S497A]	–
7.3	–	–	EIPLLSDYSDSENISEKSSDDEEAFEKQVTSSYAAPIKVKSQGKSSKGS [Rap1_(479-527) S512A/S513A]	–
9.5	–	–	EIPLLSDYSDSENISEKSADDEEAFEKQVTSSYSSPIKVKSQGKSSKGS [Rap1_(479-527) S497A]	–
115	–	–	EIPLLSDYSDSENISEKSSDDEEAFEKQVTSSYEEPIKVKSQGKSSKGS (domain or fragment, S. pombe, UniProt Q96TL7 479-527, looked up, phosphomimetic; also called Rap1^S512E/S513E; source: E. coli BL21(DE3), purified (glutathione-Sepharose 4B, on-beads 3C digestion, Superdex75); not shown: GST, N-terminal, cleaved) [Rap1_(479–527) S512E/S513E]	IC50 [9]: > 200 µM; fold decrease in binding affinity against wild-type Rap1 [6]: 10 fold
0.9	–	–	EIPLLSDYSDSENISEKEEDDEEAFEKQVTSSYSSPIKVKSQGKSSKGS (domain or fragment, S. pombe, UniProt Q96TL7 479-527, looked up, phosphomimetic; also called Rap1^S496E/S497E; source: E. coli BL21(DE3), purified (glutathione-Sepharose 4B, on-beads 3C digestion, Superdex75); not shown: GST, N-terminal, cleaved) [Rap1_(479–527) (S496E/S497E)]	IC50 [9]: 6.8 µM; fold increase in binding affinity against wild-type Rap1 [6]: 10 fold
–	13.7	12.9	Rap1_(220-606) (protein) SVSKSENKALVNNKRYSDSYFYFSKMRRISIDVDYVDEDLNLINAYLSQFGKKRSLNELCALLSRRFSNRHTFSEWRALFMHFFPFINSEGVDPAILSDRETSAMLDETSDNEVADIDDQMIERKYLFSASEPNTVKSTNRLIFSERKAYAADDSIDNTPSKVPIVNSLSDPRTNRPFFYSNPDSMYRSISNPLHLVDSQHLSPLNRKTHFNNPIGQPQFTCLDDHEKTLRETSFRSLDDMSLRKSNSDNIFVKPGEDLEIPLLSDYSDSENISEKSSDDEEAFEKQVTSSYSSPIKVKSQGKSSKGSSGLDVREHEGSDDDAEVFVDRSPESFGATKVAHTSLEGNAASHKKVEENMQQPVTKKQKKYRMVNEEAHTGPTIIIPSD	–
–	5.7	7.9	Rap1_(468-541) (protein) DNIFVKPGEDLEIPLLSDYSDSENISEKSSDDEEAFEKQVTSSYSSPIKVKSQGKSSKGSSGLDVREHEGSDDD	–
–	14.7	15.3	KSSDDEEAFEKQVTSSYSSPIKVKSQGKSSKGS [Rap1_(495-527)]	–
–	8.3	9.7	Rap1_(490-541) (protein) ENISEKSSDDEEAFEKQVTSSYSSPIKVKSQGKSSKGSSGLDVREHEGSDDD	–
